Values of other authors as cited in US9956303B2, “Anti-met therapy for previously diagnosed cancer patients” (GE HEALTHCARE LIMITED, priority 2011, dated 2018).

Legend:
c-Met [1] = molecular target: T1, c-Met (Homo sapiens, UniProt P08581); parameters: host or cells: NSCLC patients' tumours; details: for median overall-survival: analysed by retrospective IHC of archive biopsy samples, p=0.002
[2] = in vivo
c-Met [3] = molecular target: T1, c-Met; details: mouse, in vivo
HGF = molecular target: T2, HGF (Homo sapiens, UniProt P14210); details: combination with ECX
T2 construct: host or cells: patients
T2 sequence (P14210 32-728): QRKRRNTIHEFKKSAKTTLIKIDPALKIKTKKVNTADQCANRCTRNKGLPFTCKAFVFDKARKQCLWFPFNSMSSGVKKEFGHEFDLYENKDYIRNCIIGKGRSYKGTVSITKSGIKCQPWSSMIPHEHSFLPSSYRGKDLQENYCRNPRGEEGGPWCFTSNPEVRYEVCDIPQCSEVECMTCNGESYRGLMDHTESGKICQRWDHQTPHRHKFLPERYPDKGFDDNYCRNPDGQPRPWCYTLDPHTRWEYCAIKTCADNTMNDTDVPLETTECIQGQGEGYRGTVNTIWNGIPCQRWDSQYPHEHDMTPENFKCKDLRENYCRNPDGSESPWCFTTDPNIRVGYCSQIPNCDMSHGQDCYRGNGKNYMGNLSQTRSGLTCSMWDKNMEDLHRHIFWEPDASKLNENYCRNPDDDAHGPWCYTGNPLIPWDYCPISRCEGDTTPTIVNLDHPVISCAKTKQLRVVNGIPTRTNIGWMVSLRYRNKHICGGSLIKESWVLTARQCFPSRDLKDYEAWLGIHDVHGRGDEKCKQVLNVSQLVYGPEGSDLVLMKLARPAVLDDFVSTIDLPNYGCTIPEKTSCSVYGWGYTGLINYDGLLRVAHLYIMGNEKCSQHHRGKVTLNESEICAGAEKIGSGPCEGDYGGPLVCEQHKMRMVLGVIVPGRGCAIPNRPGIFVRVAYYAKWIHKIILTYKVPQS

T1 sequence (P08581 25-1390): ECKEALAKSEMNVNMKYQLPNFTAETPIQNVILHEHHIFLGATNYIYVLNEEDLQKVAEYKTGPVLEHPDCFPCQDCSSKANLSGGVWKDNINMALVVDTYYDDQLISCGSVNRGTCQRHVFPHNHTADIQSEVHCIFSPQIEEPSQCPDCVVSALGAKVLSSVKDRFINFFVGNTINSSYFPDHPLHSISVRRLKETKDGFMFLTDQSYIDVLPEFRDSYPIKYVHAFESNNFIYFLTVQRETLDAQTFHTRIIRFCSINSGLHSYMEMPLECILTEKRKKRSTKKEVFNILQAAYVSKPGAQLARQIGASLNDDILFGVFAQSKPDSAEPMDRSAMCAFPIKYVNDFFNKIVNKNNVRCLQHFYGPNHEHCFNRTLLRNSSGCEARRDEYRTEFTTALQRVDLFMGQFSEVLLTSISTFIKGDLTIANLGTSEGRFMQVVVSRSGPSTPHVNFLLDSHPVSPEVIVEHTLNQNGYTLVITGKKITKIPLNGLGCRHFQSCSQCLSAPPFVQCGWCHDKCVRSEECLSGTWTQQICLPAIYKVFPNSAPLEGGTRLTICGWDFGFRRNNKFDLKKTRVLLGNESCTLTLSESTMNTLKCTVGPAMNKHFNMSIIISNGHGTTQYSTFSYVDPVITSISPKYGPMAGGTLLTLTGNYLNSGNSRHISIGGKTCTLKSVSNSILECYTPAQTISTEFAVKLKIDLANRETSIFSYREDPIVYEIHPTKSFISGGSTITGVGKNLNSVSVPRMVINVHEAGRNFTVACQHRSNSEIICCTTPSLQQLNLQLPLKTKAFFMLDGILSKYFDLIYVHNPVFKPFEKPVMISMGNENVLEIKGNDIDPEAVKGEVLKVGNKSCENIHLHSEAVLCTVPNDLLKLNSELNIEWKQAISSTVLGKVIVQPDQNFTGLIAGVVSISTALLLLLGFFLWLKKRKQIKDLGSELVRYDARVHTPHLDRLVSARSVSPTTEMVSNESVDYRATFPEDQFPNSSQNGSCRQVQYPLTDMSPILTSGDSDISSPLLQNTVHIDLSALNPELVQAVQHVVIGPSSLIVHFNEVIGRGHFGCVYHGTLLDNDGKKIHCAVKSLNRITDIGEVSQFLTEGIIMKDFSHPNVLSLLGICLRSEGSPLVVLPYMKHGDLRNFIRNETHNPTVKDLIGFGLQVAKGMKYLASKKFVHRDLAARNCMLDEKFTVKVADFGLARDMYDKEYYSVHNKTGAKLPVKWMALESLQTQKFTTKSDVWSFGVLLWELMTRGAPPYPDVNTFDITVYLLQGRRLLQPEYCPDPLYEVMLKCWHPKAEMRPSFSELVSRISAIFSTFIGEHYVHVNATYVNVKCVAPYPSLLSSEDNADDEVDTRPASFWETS

Question: Which median overall-survival (c-Met [1]) does the source give for `C#Cc1cccc(Nc2ncnc3cc(OCCOC)c(OCCOC)cc23)c1` [Erlotinib, reference compound] here?
Answer: 3.8 months

Question: Which results are given for “MetMAb: a monoclonal antibody blocking c-Met (Roche)”?
Answer: combined elimination half-life [2]: 190 to 288 h; outcome, low c-Met expression (c-Met [1]; MetMAb in combination with Erlotinib compared to Erlotinib alone): worse outcome; median overall-survival (c-Met [1]): 12.6 months; outcome, patient group as a whole (c-Met [1]; patients with high and low c-Met expression, MetMAb+Erlotinib vs placebo+Erlotinib): no differences between the two treatments

Question: With “MetMab™ labelled with ^76Br or ^89Zr: anti-c-Met antibody (MetMab) labelled with 76Br or 89Zr for molecular imaging of c-Met” as the compound, how does the “tumour uptake and clearance” value (c-Met [3]) read?
Answer: rapid tumour uptake and slow clearance

Question: For rilotumumab: HGF antibody (Amgen), which “median overall survival vs placebo and ECX” value (HGF; c-Met high tumours (>50% tumour cells positive)) is on record?
Answer: improved median overall survival

Question: And the “overall survival vs placebo and ECX” value (HGF; c-Met low tumours (≤50% positive))?
Answer: trend toward unfavourable overall survival
